{"source": "patent US20240285790A1", "test_in_all_cases": "cell-based or functional assay", "key": {"[1]": {"target": "HIV-1CM244 Env (HIV-1 CM244)"}, "[2]": {"target": "HIV-1ZM109 Env (HIV-1 ZM109)"}, "[3]": {"target": "HIV-1JRCSF Env (HIV-1 JRCSF) (UniProt P20871)", "sequence (P20871 32-848 limits assumed)": "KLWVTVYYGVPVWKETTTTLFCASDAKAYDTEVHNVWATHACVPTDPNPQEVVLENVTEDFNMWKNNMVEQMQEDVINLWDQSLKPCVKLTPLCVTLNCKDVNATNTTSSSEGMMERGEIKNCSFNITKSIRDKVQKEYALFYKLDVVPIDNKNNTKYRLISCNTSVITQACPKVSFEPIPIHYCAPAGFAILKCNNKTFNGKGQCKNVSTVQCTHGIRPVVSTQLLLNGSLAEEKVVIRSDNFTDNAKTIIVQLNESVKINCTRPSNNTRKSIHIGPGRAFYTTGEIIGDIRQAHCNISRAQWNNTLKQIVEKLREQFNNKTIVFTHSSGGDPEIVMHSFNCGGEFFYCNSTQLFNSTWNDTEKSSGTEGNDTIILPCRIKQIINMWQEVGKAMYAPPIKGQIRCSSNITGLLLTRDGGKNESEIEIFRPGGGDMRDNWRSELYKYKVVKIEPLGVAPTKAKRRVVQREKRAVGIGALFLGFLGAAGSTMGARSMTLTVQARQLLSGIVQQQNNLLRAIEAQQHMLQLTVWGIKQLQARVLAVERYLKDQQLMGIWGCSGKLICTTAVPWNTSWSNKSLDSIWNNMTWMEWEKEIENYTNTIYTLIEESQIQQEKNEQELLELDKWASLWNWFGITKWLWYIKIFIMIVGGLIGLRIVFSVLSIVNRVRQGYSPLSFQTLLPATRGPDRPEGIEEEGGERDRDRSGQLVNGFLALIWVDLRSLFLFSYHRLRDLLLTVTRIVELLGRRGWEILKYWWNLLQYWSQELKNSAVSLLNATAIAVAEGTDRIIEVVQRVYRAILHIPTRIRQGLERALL"}, "[4]": {"target": "HIV-1C1086 Env (HIV-1 C1086)"}, "[5]": {"target": "HIV-1BG505 Env (HIV-1 BG505)"}, "HIV-1YU2 Env (HIV-1 YU2)": {"target": "HIV-1YU2 Env (HIV-1 YU2) (UniProt P35961)", "sequence (P35961 32-843 limits assumed)": "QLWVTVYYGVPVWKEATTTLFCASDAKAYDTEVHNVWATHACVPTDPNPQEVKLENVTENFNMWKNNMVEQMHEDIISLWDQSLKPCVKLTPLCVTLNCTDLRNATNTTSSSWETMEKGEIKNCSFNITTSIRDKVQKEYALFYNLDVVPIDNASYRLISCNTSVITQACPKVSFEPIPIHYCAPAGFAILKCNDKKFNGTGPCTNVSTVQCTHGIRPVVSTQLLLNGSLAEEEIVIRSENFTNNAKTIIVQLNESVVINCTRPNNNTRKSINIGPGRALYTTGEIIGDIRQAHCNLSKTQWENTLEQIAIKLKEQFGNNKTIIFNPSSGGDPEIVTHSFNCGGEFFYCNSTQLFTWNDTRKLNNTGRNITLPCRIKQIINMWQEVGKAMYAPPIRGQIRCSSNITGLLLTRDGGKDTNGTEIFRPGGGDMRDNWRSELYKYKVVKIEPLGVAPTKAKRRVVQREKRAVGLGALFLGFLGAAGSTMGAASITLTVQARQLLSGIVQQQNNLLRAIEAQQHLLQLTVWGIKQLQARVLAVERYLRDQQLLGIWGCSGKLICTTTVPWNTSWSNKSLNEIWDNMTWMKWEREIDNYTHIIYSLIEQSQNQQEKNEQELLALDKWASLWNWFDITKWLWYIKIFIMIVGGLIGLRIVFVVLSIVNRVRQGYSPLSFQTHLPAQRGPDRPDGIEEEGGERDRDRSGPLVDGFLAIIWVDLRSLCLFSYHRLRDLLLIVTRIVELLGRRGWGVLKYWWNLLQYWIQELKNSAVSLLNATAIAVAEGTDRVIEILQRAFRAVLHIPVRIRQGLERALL"}, "HIV-1AD8 Env (HIV-1 AD8)": {"target": "HIV-1AD8 Env (HIV-1 AD8)"}}}
{"substance": "17b-CD4 conjugate", "values": [{"measurement": "Neutralization IC50", "setting": "[1]", "value": 0.609, "unit": "µg/mL"}, {"measurement": "Neutralization IC50", "setting": "[2]", "value": 0.113, "unit": "µg/mL"}, {"measurement": "Neutralization IC50", "setting": "[3]", "value": 0.807, "unit": "µg/mL"}, {"measurement": "Neutralization IC50", "setting": "[4]", "value": 0.269, "unit": "µg/mL"}, {"measurement": "Neutralization IC50", "setting": "[5]", "value": 2.64, "unit": "µg/mL"}, {"measurement": "Neutralization IC50", "setting": "HIV-1YU2 Env (HIV-1 YU2)", "value": 0.082, "unit": "µg/mL"}, {"measurement": "Neutralization IC50", "setting": "HIV-1AD8 Env (HIV-1 AD8)", "value": 0.877, "unit": "µg/mL"}]}
